Measurements: patent publication US8637043B2, “Compositions useful as ligands for the formyl peptide receptor like 1 receptor and methods of use thereof” (Chemocentryx, Inc., priority 2001, dated 2014)
Where “and” joins values, the source holds several entries; their conditions need not be identical. Equal entries are not always repeated.

What was measured:
[1] = tested on: human neutrophils; assay: Calcium flux in human neutrophils; assay type: cell-based; settings: human neutrophils
Procedure: (§1) Ca^2+ mobilization responses were performed using the intracellular ratiometric fluorescent dye, lndo-1. Cells were loaded with Indo-1/AM (3 μM; Molecular Probes, Eugene, Oreg.) in culture medium (45 min, 20° C., 10^7 cells/ml). After dye loading, cells were washed once with 10 ml PBS) and resuspended at 10^6 cell/ml in HBSS containing 1% FBS. Cytosolic [Ca^2+] release was determined using excitation at 350 nm using a Photon Technology International fluorimeter (excitation at 350 nm, ratioed dual emission at 400 and 490 nm).
(§2) The human recombinant chemokines, leukotactin, MlP-1α, three known CKβ8 variants CKβ8(1-99), CKβ8(25-99), CKβ8-1(1-116) and a novel NH2-terminal truncated form of CKβ8-1, CKβ8-1 (25-116) were obtained from R&D Systems (Minneapolis, Minn.). Human monocytes were generated from buffy coats (Stanford Blood Center, Palo Alto, Calif.) following a standard protocol. Briefly, PBMC were isolated by standard density gradient centrifugation (Ficoll-Paque-Plus, Pharmacia). Monocytes were purified using CD14 Microbeads (Miltenyi, Auburn, Calif.) magnetic positive selection. Human neutrophils were isolated from fresh peripheral blood from healthy individuals by gradient centrifugation on Ficoll-Hypaque (Hyclone, Calif.).
(§3) Human monocytes were either generated from buffy coats (Stanford Blood Center, Palo Also, Calif.) or from fresh blood of healthy individuals following a standard protocol. Briefly, PBMC were isolated by a Ficoll-Paque gradient centrifugation (Ficoll-Paque-Plus, Pharmacia). Monocytes were purified by CD14 Microbeads (Miltenyi) magnetic positive selection. Human neutrophils were isolated from fresh blood by dextran sedimentation and gradient centrifugation Ficoll-Paque gradient centrifugation. All cells were washed and resuspended (1×10^7/ml) in RPMI medium with 10% FBS.
as §1, with “an” for “the”, “Indo-1.” for “lndo-1.”, “Probes (Eugene, Oreg.))” for “Probes, Eugene, Oreg.)”, “cells/mi).” for “cells/ml).”, “(10” for “with 10”

[2] = tested on: human monocytes; assay: Calcium flux in human monocytes; assay type: cell-based
Procedure: as §1, §2
The activity of the CCL23 variants was tested on freshly prepared human monocytes and neutrophils using the calcium flux test described in Example 1.
as §3
as §1, with “an” for “the”, “Indo-1.” for “lndo-1.”, “Probes (Eugene, Oreg.))” for “Probes, Eugene, Oreg.)”, “cells/mi).” for “cells/ml).”, “(10” for “with 10”

[3] = tested on: immature Dendritic Cells; assay: Calcium mobilization, immature dendritic cells; assay type: cell-based, human
Procedure: (§4) Human recombinant CKβ8-1(25-116) chemokine was obtained from R&D Systems (Minneapolis, Minn.). The peptide SHAAGtides SEQ ID NO:1 and SEQ ID NO:6 and a control protein (the reverse sequence of SEQ ID NO:1) were synthesized and HPLC-purified using routine techniques as described in Sambrook et al., 1989, and Ausubel et al., 1999.
(§5) Immature DCs were derived by culturing CD14+ monocytes in the presence of GM-CSF and IL4. Briefly, monocytes were cultured in a T-175 flask at 10^6 cells/ml in RPMI/10% FCS. Recombinant human GM-CSF and IL4 were added on day 0, 2, 4 and 6 to a final concentration of 1000 u/ml and 500 u/ml, respectively. Cells were harvested on day 7 as immature DCs and characterized for surface protein expression by FACS analysis. DC maturation was carried out by culturing day 6 immature DCs in macrophage-conditioned medium (MCM). Briefly, day 6 immature DCs were harvested by centrifugation and resuspended in MCM at 10^6 cells/ml. The medium was supplemented with 1000 u/ml of GM-CSF and 500 u/ml IL4. After three more days of culture, cells were harvested as mature DCs and characterized by surface protein expression flow cytometry.
as §1, with “an” for “the”, “Indo-1.” for “lndo-1.”, “Probes (Eugene, Oreg.))” for “Probes, Eugene, Oreg.)”, “cells/mi).” for “cells/ml).”, “(10” for “with 10”

[4] = tested on: mature Dendritic Cells; assay: Calcium mobilization, mature dendritic cells; assay type: cell-based, human
Procedure: as §4, §5
MCM was prepared as follows: PBMCs isolated from buffy coat were incubated at 37° C. in a plastic flask pre-coated with 10 mg/ml human IgG (Sigma, St Louis, Mo.) for 30 minutes. After 30 minutes, non-adherent cells were removed and adherent cells were washed three times with DPBS, then cultured in RPMI/10% human serum. Conditioned-medium was collected after 24 hours. TNF-α concentration, which is critical for DC maturation, was determined by using a TNF-α ELISA kit (R&D Systems, Minn.). The final TNF-α level in MCM was adjusted to 50 u/mi by mixing with RPMI/10% human serum, and was stored at −80 freezer until use.
as §1, with “an” for “the”, “Indo-1.” for “lndo-1.”, “Probes (Eugene, Oreg.))” for “Probes, Eugene, Oreg.)”, “cells/mi).” for “cells/ml).”, “(10” for “with 10”

[5] = tested on: neutrophils; assay: MIP-1α binding, neutrophils; design: species or system human
Procedure: (§6) Simiar binding competition tests were conducted on monocytes and neutrophils. These cells were prepared as in Example 2.

[6] = biological target: T1, CCR1 (Homo sapiens, UniProt P32246); assay: 125I-MIP-1α binding competition, HEK293-CCR1 cells; settings: HEK293-CCR1, 3 hours at 4° C.
T1 construct: full length cDNA encoding CCR1 was cloned by the polymerase chain reaction (PCR) from genomic DNA isolated from human peripheral blood cells; expressed in transfected cells; pcDNA3.1 vector)
T1 sequence (P32246 1-355): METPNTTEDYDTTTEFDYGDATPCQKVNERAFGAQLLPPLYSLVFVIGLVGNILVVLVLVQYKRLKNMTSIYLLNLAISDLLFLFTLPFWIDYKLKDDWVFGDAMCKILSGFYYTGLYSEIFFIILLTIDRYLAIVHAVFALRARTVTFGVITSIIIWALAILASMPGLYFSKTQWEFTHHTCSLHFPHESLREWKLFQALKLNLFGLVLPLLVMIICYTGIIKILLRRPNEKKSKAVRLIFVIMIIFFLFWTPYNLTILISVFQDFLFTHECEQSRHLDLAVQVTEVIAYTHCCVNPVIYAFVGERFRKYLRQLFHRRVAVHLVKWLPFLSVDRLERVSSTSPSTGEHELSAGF
Procedure: The binding characteristics of CCL23 variants was compared in human CCR1 expressing cells. […] Reactions mixtures were aspirated onto PEI-treated GF/B glass filters using a cell harvester (Packard). The filters were washed twice (25 mM HEPES, 500 mM NaCl, 1 mM CaCl2, 5 mM MgCl2, adjusted to pH 7.1). Scintillant (MicroScint-10; 35 μl) was added to dried filters and the filiters counted in a Packard Topcount scintillation counter. Data were analyzed and plotted using Prism software (GraphPad Software, San Diego, Calif.).

[7] = biological target: monocytes; assay: 125I-MIP-1α binding competition, monocytes; design: species or system human; settings: Monocytes
Procedure: The binding characteristics of CCL23 variants was compared in human CCR1 expressing cells. The ability of MIP-1α and the CCL23 variants CKβ8(1-99), CKβ8(25-99), CKβ8-1(1-116) and CKβ8-1(25-116) to compete with ^125I-MIP-1α binding was investigated in HEK293-CCR1 cells (prepared as in Example 1). The cells were incubated with ^125I-labeled MIP-1α (final conc. {dot over (˜)}0.05 nM) in the presence of unlabeled chemokine (3 hours at 4° C.: 25 mM HEPES, 140 mM NaCl, 1 mM CaCl2, 5 mM MgCl2 and 0.2% BSA, adjusted to pH 7.1). Reactions mixtures were aspirated onto PEI-treated GF/B glass filters using a cell harvester (Packard). The filters were washed twice (25 mM HEPES, 500 mM NaCl, 1 mM CaCl2, 5 mM MgCl2, adjusted to pH 7.1). Scintillant (MicroScint-10; 35 μl) was added to dried filters and the filiters counted in a Packard Topcount scintillation counter. Data were analyzed and plotted using Prism software (GraphPad Software, San Diego, Calif.).
as §6

[8] = tested on: human neutrophils; assay: Migration assay (ChemoTx), human neutrophils; assay type: cell-based; settings: 90 min, 100 nM
Procedure: Migration assays were performed on monocytes and neutrophils. Human monocytes and neutrophils (prepared as in Exampe 2) were harvested and resuspended in chemotaxis medium (CM). The CM consisted of Hank's buffered salt solution (Gibco, Mass.) containing CaCl2 (1 mM) and MgSO4 (1 mM) with added 0.1% BSA (Sigma, St. Louis, Mo.). The assays were performed in 96-well ChemoTx® microplates (Neuroprobe, Mass.). […] After incubation for 90 min (37° C., 100% humidity, 5% CO2), cells were removed from the upper surface of the filter by scraping. Cells that migrated into the lower chamber were quantified using the Quant cell proliferation assay kit (Molecular Probes, Oreg.).
The above peptides were prepared as in previous examples.

[9] = tested on: neutrophils; assay: Cross-desensitization with leukotactin, neutrophils; assay type: cell-based, human
Procedure: (§7) In cross-desensitization tests tests, cells were stimulated sequentially with leukotactin and then the chemokines CKβ8(1-99), CKβ8(25-99), CKβ8-1(1-116), and CKβ8-1(25-116). On HEK293-CCR1 transfectants (prepared as in Example 1), leukotactin induced similar patterns of receptor desensitization to all variants.
(§8) Similar receptor cross-desensitization tests were performed using both monocytes and neutrophils (prepared as in Example 2).

[10] = tested on: human monocytes; assay: Migration assay (ChemoTx), human monocytes; assay type: cell-based; settings: 90 min, 1-100 nM
Procedure: Migration assays were performed on monocytes and neutrophils. Human monocytes and neutrophils (prepared as in Exampe 2) were harvested and resuspended in chemotaxis medium (CM). The CM consisted of Hank's buffered salt solution (Gibco, Mass.) containing CaCl2 (1 mM) and MgSO4 (1 mM) with added 0.1% BSA (Sigma, St. Louis, Mo.). The assays were performed in 96-well ChemoTx® microplates (Neuroprobe, Mass.). Leukotactin, MlP-1α and chemokines (CKβ8(1-99), CKβ8(25-99), CKβ8-1(1-116) or CKβ8-1(25-116), prepared as in Example 1) were added to the lower wells (final volume 29 μL), and 20 μL of cell suspension (5×10^6 cells/mL for monocytes; 2.5×10^6 cells/mL for neutrophils) added to the polycarbonate filters (5 μm pore size for monocytes; 3 μm pore size for neutrophils). After incubation for 90 min (37° C., 100% humidity, 5% CO2), cells were removed from the upper surface of the filter by scraping. Cells that migrated into the lower chamber were quantified using the Quant cell proliferation assay kit (Molecular Probes, Oreg.).
The chemotactic activity on human monocytes and neutrophils of chemokines: CKβ8(1-99), CKβ8(25-99), CKβ8(1-116) and CKβ8(25-116); W peptides 1 and 2 and the SHAAGtide sequences SEQ ID NO:1 and SEQ ID NO:2 was determined in migration assays. The above peptides were prepared as in previous examples. The migration assays were performed in 96-well CHEMOTX® microplates (Neuroprobe) using the protocol described in Example 5.

[11] = tested on: monocytes; assay: Cross-desensitization with leukotactin, monocytes; assay type: cell-based, human
Procedure: as §7, §8

Gly Ala Ala His Ser Leu Thr Met Gin Pro Gly lie Lys Arg Arg Trp Leu Met (GAAHSLTMQPGIKRRWLM) [Control peptide (SEQ ID NO: 33), reference compound]
calcium flux ([1]; Example 8): No significant calcium flux | calcium flux ([2]; human monocytes, Example 8): No significant calcium flux | calcium flux [3]: No significant calcium flux | calcium flux [4]: No significant calcium flux

B1: MIP-1α: macrophage inflammatory protein, human recombinant chemokine, CCR1 ligand (protein, listed as Homo sapiens)
chain: SLAADTPTACCFSYTSRQIPQNFIADYFETSSQCSKPGVIFLTKRSRQVCADPSEEWVQKYVSDLE
calcium flux ([1]; 100 nM): neither MlP-1α nor CKβ8(1-99), CKβ8(25-99) or CKβ8(1-116) induced a calcium flux | MIP-1α binding to neutrophils [5]: does not bind neutrophils | IC50 [6]: 0.54 nM | IC50 [7]: 0.27 nM | migration of neutrophils [8]: none of the known CCR1 ligands including leukotactin and MlP-1α was active

B2: leukotactin: human recombinant chemokine, CCR1 agonist (protein, listed as Homo sapiens)
chain: SFHFAADCCTSYISQSIPCSLMKSYFETSSECSKPGVIFLTKKGRQVCAKPSGPGVQDCMKKLKPYSI
calcium flux ([1]; 100 nM): induced a calcium flux | migration of neutrophils [8]: none of the known CCR1 ligands including leukotactin and MlP-1α was active

B3: CKβ8(1-99): known CKβ8 (CCL23) variant, human recombinant chemokine from R&D Systems (protein, listed as Homo sapiens)
chain: RVTKDAETEFMMSKLPLENPVLLDRFHATSADCCISYTPRSIPCSLLESYFETNSECSKPGVIFLTKKGRRFCANPSDKQVQVCMRMLKLDTRIKTRKN
desensitization by leukotactin prestimulation [9]: inactive | calcium flux ([1]; 100 nM): neither MlP-1α nor CKβ8(1-99), CKβ8(25-99) or CKβ8(1-116) induced a calcium flux | calcium release ([2]; freshly prepared human monocytes, up to 250 nM): poor activity | migration of monocytes [10]: moderate activity | desensitization by leukotactin prestimulation [11]: completely desensitized | IC50 [7]: 10 nM and 10.3 nM
